Reference: PMC4810211, “DNA Aptamers against Taiwan Banded Krait α-Bungarotoxin Recognize Taiwan Cobra Cardiotoxins”

B1: FAM-bgt3 (ssDNA)
DNA: ATCATGTCTTTTCGGGATGGGCAAGAAGGGAAATAATGC
B2: FAM-bgt2 (ssDNA)
DNA: AGGGCACAGAGAAGAAGTCGTGGATTTGAATGGTTTTGGT
B3: FAM-bgt1 (ssDNA)
DNA: GCGAGGTGTTCGAGAGTTAGGGCGACATGACCAAACGTT
B4: FAM-bgt1-DABCYL (ssDNA)
DNA: GCGAGGTGTTCGAGAGTTAGGGCGACATGACCAAACGTT
B5: FAM-bgt4 (ssDNA)
DNA: AGAAACGTAGCGGTAACTGCTAGAATGCGCCGAGAGAGCG

Tests used:
[1] = biological target: alpha-bungarotoxin (α-Bgt) (Bungarus multicinctus (Taiwan banded …, UniProt P60615 22-95)); test: fluorescence quenching titration; 10 mM Tris-HCl pH 7.5, 1 mM EDTA, 100 mM NaCl; temperature not stated; […]; details: protein: native; tags: none; label: 5'-FAM
alpha-bungarotoxin (α-Bgt) (Bungarus multicinctus, sequence (P60615 22-95): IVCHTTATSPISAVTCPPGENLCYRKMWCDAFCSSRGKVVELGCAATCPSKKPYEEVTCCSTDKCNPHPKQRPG

[2] = biological target: T1, cardiotoxin 3 (CTX3) (Naja atra (Taiwan cobra), UniProt P60301 22-81); test: fluorescence quenching titration; 10 mM Tris-HCl pH 7.5, 1 mM EDTA, 100 mM NaCl; temperature not stated; fluorescence with 4 nM aptamer (ex 480/em 520 nm); EMSA with 5 uM aptamer, 20 min, 2% agarose, TAE; details: protein: native, tags: none, label: 5'-FAM
T1 sequence: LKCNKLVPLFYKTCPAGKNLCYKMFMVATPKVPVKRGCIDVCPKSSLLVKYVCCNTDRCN

[3] = biological target: T2, cardiotoxin 5 (CTX5) (Naja atra (Taiwan cobra), UniProt Q98961 22-81); test: fluorescence quenching titration; 10 mM Tris-HCl pH 7.5, 1 mM EDTA, 100 mM NaCl; temperature not stated; […]; details: protein: native; tags: none; label: 5'-FAM
T2 sequence: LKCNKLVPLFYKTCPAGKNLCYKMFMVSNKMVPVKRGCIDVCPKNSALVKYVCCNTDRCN

[4] = biological target: T3, cardiotoxin-like protein (CLBP) (Naja atra (Taiwan cobra), UniProt P62375 22-83); test: as above; details: protein: native; tags: none; label: 5'-FAM
T3 sequence: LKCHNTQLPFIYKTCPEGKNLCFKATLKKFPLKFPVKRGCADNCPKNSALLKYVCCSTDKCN

[5] = biological target: T4, cardiotoxin N (CTXN) (Naja atra (Taiwan cobra), UniProt P80245 22-81); test: as above; details: protein: native; tags: none; label: 5'-FAM
T4 sequence: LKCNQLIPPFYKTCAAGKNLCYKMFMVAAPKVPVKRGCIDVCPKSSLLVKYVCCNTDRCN

[6] = biological target: T5, cardiotoxin 1 (CTX1) (Naja atra (Taiwan cobra), UniProt P60304 22-81); test: fluorescence quenching titration; 10 mM Tris-HCl pH 7.5, 1 mM EDTA, 100 mM NaCl; temperature not stated; fluorescence with 4 nM aptamer (ex 480/em 520 nm); EMSA with 5 uM aptamer, 20 min, 2% agarose, TAE; details: protein: native; tags: none; label: 5'-FAM
T5 sequence: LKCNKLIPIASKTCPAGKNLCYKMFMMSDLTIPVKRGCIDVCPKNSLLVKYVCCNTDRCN

[7] = biological target: T6, cardiotoxin 4 (CTX4) (Naja atra (Taiwan cobra), UniProt P01443 22-81); test: as above; details: protein: native; tags: none; label: 5'-FAM
T6 sequence: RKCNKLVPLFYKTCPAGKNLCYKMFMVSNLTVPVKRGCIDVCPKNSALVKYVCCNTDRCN

[8] = biological target: T7, cardiotoxin 2 (CTX2) (Naja atra (Taiwan cobra), UniProt P01442 22-81); test: as above; details: protein: native; tags: none; label: 5'-FAM
T7 sequence: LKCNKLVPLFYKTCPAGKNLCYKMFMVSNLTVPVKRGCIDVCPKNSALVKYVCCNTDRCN

| Binder | Kd [1] [nM] | Kd [2] [nM] | further results |
| --- | --- | --- | --- |
| B1 | 140 | 1260 |  |
| B2 | 460 | 260 |  |
| B3 | 2210 | 2250 | Kd [3]: 17200 nM; Kd [4]: 7190 nM; Kd [5]: 8850 nM; Kd [6]: 2510 nM; Kd [7]: 8130 nM; Kd [8]: 6290 nM |
| B4 |  |  | Kd ([2]; 3'-DABCYL): 2350 nM |
| B5 | 280 | 1170 |  |
